Results reported in the supplement of paper PMC10567573.
± gives the standard deviation.

Assay: protein stability index of a GFP-peptide fusion (GPS, HEK-293T) (PSI 1-6); higher = more stable
Conditions: c terminus: a fixed tail appended
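Note: 24-mer peptide tiles fused after GFP, lentivirally expressed, FACS-sorted into six equal bins by GFP/DsRed ratio, decoded by Illumina sequencing, PSI is the read-weighted mean bin number.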

Row | Sequence | protein stability index (treatment: DMSO) | protein stability index (treatment: MLN4924 1 uM, 8 h)
1 | GEARFLPKDLDPSLCTHLIYAFAG [CHIT1] | 2.36 ± 0.27 | 2.44 ± 0.49
2 | PDLNTLLWEAEDRQNVPRKVPNHY [CPXM2] | 3.87 ± 0.27 | 3.86 ± 0.092
3 | PECGLAKKPPEESTCFERPCFKWY [ADAMTSL2] | 3.4 ± 0.42 | 2.96 ± 0.34
4 | SSSNEHAAPAAKTRKQAAKKVAPL [ELOA2] | 4.85 ± 0.32 | 4.92 ± 0.26
5 | WKDIIHNPQALSPQFTGILQLLQS [INTS3] | 2.11 ± 0.34 | 2.14 ± 0.23
6 | MEVGSGSRELSLRPSRSGAQQLEE [EID1] | 5.43 ± 0.23 | 5.25 ± 0.35
